Assay results published in patent US20090142855, “Polynucleotides and Polypeptides of the IL-12 Family of Cytokines” (published 2009).

Columns and labels:
[1] = target: T1, IL-23 (p19/p40 heterodimer) (Homo sapiens, UniProt P29460;Q9NPF7 P29460:23-328,Q9NPF7:20-189); experiment: FP; conditions: label: 5'-32P
[2] = target: T1, IL-23 (p19/p40 heterodimer); experiment: filter; dot blot nitrocellulose; Dulbecco's PBS with Ca2+ and Mg2+, 0.1 mg/mL BSA, room temp 30 min; conditions: label: 5'-32P
Experimental: Aptamer binding affinity determination. Trace 5′-³²P-labeled aptamers were combined with protein (IL-23 or IL-12) at various concentrations and incubated at room temperature for 30 minutes in Dulbecco's PBS (PBS plus Ca²⁺, Mg²⁺) plus 0.1 mg/mL BSA. Each titration curve was tested in duplicate. The reactions were then added to a dot blot apparatus (Minifold-1 Dot Blot, Acrylic, Schleicher and Schuell, Keene, N.H.), assembled (from top to bottom) with Protran nitrocellulose (Schleicher and Schuell, Keene, N.H.), Hybond-P nylon (Amersham Biosciences, Piscataway, N.J.) and GB002 gel blot paper (Schleicher and Schuell, Keene, NH). Aptamers bound to protein are retained on the nitrocellulose filter, whereas the non-protein bound RNA is captured on the nylon filter. The extent of aptamer capture on each filter was quantitated using a Phosphoimager (Molecular Dynamics). Equilibrium dissociation constants (KD) were calculated using the equation: […]
FIGS. 3 and 4 show the comparison of the aptamer binding curves (in duplicate) to cynomolgus IL-23, cynomolgus IL-12, and human IL-23.

T1 sequence (P29460 23-328, chain 1 of 2): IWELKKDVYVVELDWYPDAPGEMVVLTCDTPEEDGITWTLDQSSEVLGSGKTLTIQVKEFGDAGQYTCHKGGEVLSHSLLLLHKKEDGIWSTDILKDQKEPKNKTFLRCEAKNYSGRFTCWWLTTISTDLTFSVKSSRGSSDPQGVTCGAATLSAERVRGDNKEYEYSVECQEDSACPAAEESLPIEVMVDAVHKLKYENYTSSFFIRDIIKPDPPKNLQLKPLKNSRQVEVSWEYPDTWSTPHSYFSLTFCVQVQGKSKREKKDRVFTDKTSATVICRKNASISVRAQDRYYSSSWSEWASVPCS
T1 sequence (Q9NPF7 20-189, chain 2 of 2): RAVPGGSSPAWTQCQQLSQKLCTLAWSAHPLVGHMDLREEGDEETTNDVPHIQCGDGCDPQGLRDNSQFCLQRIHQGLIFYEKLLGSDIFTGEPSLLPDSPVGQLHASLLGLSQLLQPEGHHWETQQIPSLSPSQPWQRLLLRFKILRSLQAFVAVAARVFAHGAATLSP

| Binder | Kd [1] [pM] | Kd [2] [pM] |
| --- | --- | --- |
| ACAGGCAAGUAAUUGGGGAGUGCGGGCGGGGUGU (mixed, 2'-OMe at all C and all U and at G16, G17, G24, G25, G30, G31; all other nucleotides 2'-deoxy (all A deoxy); PS after positions 17, 18, 19, 21; 3' inverted dT) [ARC1623] | 250 | – |
| ACAGGCAAGUAAUUGGGGAGUGCGGGCGGGGUGU (mixed, 2'-OMe at all C and all U and at G16, G17, G24, G25, G30, G31; all other nucleotides 2'-deoxy (all A deoxy); PS after positions 2, 3, 4, 6, 7, 8, 10, 11, 14, 17, 18, 19, 21, 25, 27, 28, 32; 3' inverted dT) [ARC1626] | – | 150 |
